Source: paper PMC8849274 (Oncotarget, 2022)

Columns and labels:
Type in all cases: in vivo
[1] = Biodistribution in mice bearing BxPC-3 xenografts; conditions: female, athymic nude, mouse, iv, total radioactivity, BxPC-3 tumor-bearing mice; for tissue uptake at 1 h: 1 h p.i.; for tissue uptake at 24 h: 24 h p.i.
Excerpt: (§1) Animals were supplied by Charles River Laboratories (Wilmington, MA, USA), and were handled in compliance with the Guidelines for Care and Use of Research Animals established by the Division of Comparative Medicine and the Animal Studies Committee of Washington University School of Medicine under protocol #20–0214. Female athymic nude mice were inoculated on the right flank with 10 × 10^6 CaSki or 5 × 10^6 BxPC-3 cells. Tumors were allowed to grow until they approached approximately 100 mm^3 in volume. Radiolabeled peptides were diluted in saline to a dose of 0.37 MBq (10 μCi) per 100 μl. […] For blocking experiments, non-PEGylated peptide (100 μg in 100 μL saline) was injected ten minutes before radiotracer. Blood, lung, liver, spleen, kidney, muscle, heart, bone, and tumor were harvested. The amount of radioactivity in each organ was determined by gamma counting, and the percent injected dose per gram of tissue (% ID/g) was calculated.

[2] = Biodistribution in mice bearing CaSki xenografts; conditions: female, athymic nude, mouse, iv, total radioactivity; for tissue uptake at 1 h: 1 h p.i.; for tissue uptake at 24 h: 24 h p.i.
Excerpt: as §1

[3] = Small animal PET/CT imaging, BxPC-3 tumors; conditions: female, mouse, tumor (BxPC-3 xenograft), iv, total radioactivity, athymic nude mice bearing BxPC-3 tumors, 3.7 MBq i.v., without blocking, n = 3, read-out: SUVmax of tumors
Description: BxPC-3 cells (5 × 10^6) were inoculated in the right shoulder of female athymic nude mice 3–4 weeks before PET imaging sessions. All the experiments involving animals followed the Guidelines for Care and Use of Research Animals established by the Division of Comparative Medicine and the Animal Studies Committee of Washington University School of Medicine under protocol #20–0214. […] Mice were imaged with CT followed by static PET scans at 1, 4, and 24 h after tracer administration on an Inveon small animal PET/CT scanner (Siemens Medical Solutions, Malvern, PA, USA). Static images were collected for 20 min and reconstructed with the maximum a posteriori (MAP) reconstruction algorithm using the Inveon Reseach Workstation image display software (Siemens). Regions of interest (ROI) were selected based on co-registered anatomical CT images, and the associated radioactivity was measured using the Inveon software. The maximum standard uptake value (SUV) was calculated as the highest regional radioactivity concentration (nCi/cc) × animal weight (g)/decay-corrected amount of injected dose (nCi).

CC(C)C[C@H](NC(=O)[C@H](CC(=O)O)NC(=O)CNC(=O)[C@H](CCCNC(=N)N)NC(=O)[C@H](CC(C)C)NC(=O)[C@H](CC(N)=O)NC(=O)[C@@H]1CCCN1C(=O)[C@@H](NC(=O)[C@H](C)NC(=O)[C@H](CC(N)=O)NC(=O)CCOCCOCCOCCOCCOCCOCCOCCOCCOCCOCCOCCOCCOCCOCCOCCOCCOCCOCCOCCOCCOCCOCCOCCOCCOCCOCCOCCOCCNC(=O)CN1CCN(CC(=O)O)Cc2cccc(n2)CN(CC(=O)O)CC1)C(C)C)C(=O)N[C@@H](CCC(N)=O)C(=O)N[C@H](C(=O)N[C@@H](CC(C)C)C(=O)N[C@@H](C)C(=O)N[C@@H](CCC(N)=O)C(=O)N[C@@H](CCCCN)C(=O)N[C@H](C(=O)N[C@@H](C)C(=O)N[C@@H](CCCNC(=N)N)C(=O)N[C@H](C(=O)NCCOCCOCCOCCOCCOCCOCCOCCOCCOCCOCCOCCOCCOCCOCCOCCOCCOCCOCCOCCOCCOCCOCCOCCOCCOCCOCCOCCOCCC(N)=O)[C@@H](C)O)C(C)C)C(C)C [[^64Cu]Cu-PCTA-(PEG28)2-A20FMDV2, metal not drawn]
tissue uptake at 1 h ([1]; blood, 0.37 MBq i.v., gamma counting, mean, n = 4, read-out: Uptake in Blood): 0.27 %ID/g | tissue uptake at 1 h ([1]; blood, non-PEGylated A20FMDV2 100 μg injected 10 min before radiotracer, read-out: Uptake in Blood, 1 h Block): 0.27 %ID/g | tissue uptake at 1 h ([1]; bone, 0.37 MBq i.v., gamma counting, mean, n = 4, read-out: Uptake in Bone): 0.38 %ID/g | tissue uptake at 1 h ([1]; bone, non-PEGylated A20FMDV2 100 μg injected 10 min before radiotracer, read-out: Uptake in Bone, 1 h Block): 0.66 %ID/g | tissue uptake at 1 h ([1]; heart, 0.37 MBq i.v., gamma counting, mean, n = 4, read-out: Uptake in Heart): 1.9 %ID/g | tissue uptake at 1 h ([1]; heart, non-PEGylated A20FMDV2 100 μg injected 10 min before radiotracer, read-out: Uptake in Heart, 1 h Block): 0.27 %ID/g | tissue uptake at 1 h ([1]; 0.37 MBq i.v., gamma counting, mean, n = 4, read-out: Tumor Uptake): 3.86 ± 0.58 %ID/g | tissue uptake at 1 h ([1]; kidney, 0.37 MBq i.v., gamma counting, mean, n = 4, read-out: Uptake in Kidney): 105 ± 13.6 %ID/g | tissue uptake at 24 h ([1]; kidney, 0.37 MBq i.v., read-out: Uptake in Kidney): 28.6 ± 8.45 %ID/g | tissue uptake at 1 h ([1]; kidney, non-PEGylated A20FMDV2 100 μg injected 10 min before radiotracer, read-out: Uptake in Kidney, 1 h Block): 80.6 %ID/g | tissue uptake at 1 h ([1]; liver, 0.37 MBq i.v., gamma counting, mean, n = 4, read-out: Uptake in Liver): 1.94 %ID/g | tissue uptake at 1 h ([1]; liver, non-PEGylated A20FMDV2 100 μg injected 10 min before radiotracer, read-out: Uptake in Liver, 1 h Block): 1.68 %ID/g | tissue uptake at 1 h ([1]; lung, 0.37 MBq i.v., gamma counting, mean, n = 4, read-out: Uptake in Lung): 2.58 %ID/g | tissue uptake at 1 h ([1]; lung, non-PEGylated A20FMDV2 100 μg injected 10 min before radiotracer, read-out: Uptake in Lung, 1 h Block): 1.25 %ID/g | tissue uptake at 1 h ([1]; muscle, 0.37 MBq i.v., gamma counting, mean, n = 4, read-out: Uptake in Muscle): 1.13 %ID/g | tissue uptake at 1 h ([1]; muscle, non-PEGylated A20FMDV2 100 μg injected 10 min before radiotracer, read-out: Uptake in Muscle, 1 h Block): 0.28 %ID/g | tissue uptake at 1 h ([1]; spleen, 0.37 MBq i.v., gamma counting, mean, n = 4, read-out: Uptake in Spleen): 0.28 %ID/g | tissue uptake at 1 h ([1]; spleen, non-PEGylated A20FMDV2 100 μg injected 10 min before radiotracer, read-out: Uptake in Spleen, 1 h Block): 0.24 %ID/g | tissue uptake at 4 h ([1]; tumor (BxPC-3 xenograft), 0.37 MBq i.v., 4 h p.i.): 3.09 ± 0.77 %ID/g | tissue uptake at 24 h ([1]; tumor (BxPC-3 xenograft), 0.37 MBq i.v., read-out: Tumor Uptake): 2.45 ± 0.57 %ID/g | tissue uptake at 1 h ([1]; tumor (BxPC-3 xenograft), non-PEGylated A20FMDV2 100 μg injected 10 min before radiotracer, read-out: Tumor uptake, 1 h Block): 0.75 ± 0.09 %ID/g | tissue uptake at 1 h ([2]; blood, CaSki tumor-bearing mice, 0.37 MBq i.v., gamma counting, mean, n = 4, read-out: Uptake in Blood): 0.54 %ID/g | tissue uptake at 24 h ([2]; blood, CaSki tumor-bearing mice, 0.37 MBq i.v., read-out: Radioactivity remaining in the blood): 0.53 ± 0.1 %ID/g | tissue uptake at 1 h ([2]; blood, CaSki tumor-bearing mice, non-PEGylated A20FMDV2 100 μg injected 10 min before radiotracer, read-out: Uptake in Blood, 1 h Block): 0.76 %ID/g | tissue uptake at 1 h ([2]; bone, CaSki tumor-bearing mice, 0.37 MBq i.v., gamma counting, mean, n = 4, read-out: Uptake in Bone): 0.54 %ID/g | tissue uptake at 1 h ([2]; bone, CaSki tumor-bearing mice, non-PEGylated A20FMDV2 100 μg injected 10 min before radiotracer, read-out: Uptake in Bone, 1 h Block): 0.39 %ID/g | tissue uptake at 1 h ([2]; heart, CaSki tumor-bearing mice, 0.37 MBq i.v., gamma counting, mean, n = 4, read-out: Uptake in Heart): 2.46 %ID/g | tissue uptake at 1 h ([2]; heart, CaSki tumor-bearing mice, non-PEGylated A20FMDV2 100 μg injected 10 min before radiotracer, read-out: Uptake in Heart, 1 h Block): 0.55 %ID/g | tissue uptake at 1 h ([2]; kidney, CaSki tumor-bearing mice, 0.37 MBq i.v., gamma counting, mean, n = 4, read-out: Uptake in Kidney): 114 ± 38.3 %ID/g | tissue uptake at 24 h ([2]; kidney, CaSki tumor-bearing mice, 0.37 MBq i.v., read-out: Uptake in Kidney): 24.4 ± 6.54 %ID/g | tissue uptake at 1 h ([2]; kidney, CaSki tumor-bearing mice, non-PEGylated A20FMDV2 100 μg injected 10 min before radiotracer, read-out: Uptake in Kidney, 1 h Block): 43.6 %ID/g | tissue uptake at 1 h ([2]; liver, CaSki tumor-bearing mice, 0.37 MBq i.v., gamma counting, mean, n = 4, read-out: Uptake in Liver): 6.81 %ID/g | tissue uptake at 1 h ([2]; liver, CaSki tumor-bearing mice, non-PEGylated A20FMDV2 100 μg injected 10 min before radiotracer, read-out: Uptake in Liver, 1 h Block): 3.04 %ID/g | tissue uptake at 1 h ([2]; lung, CaSki tumor-bearing mice, 0.37 MBq i.v., gamma counting, mean, n = 4, read-out: Uptake in Lung): 3.76 %ID/g | tissue uptake at 1 h ([2]; lung, CaSki tumor-bearing mice, non-PEGylated A20FMDV2 100 μg injected 10 min before radiotracer, read-out: Uptake in Lung, 1 h Block): 1.43 %ID/g | tissue uptake at 1 h ([2]; muscle, CaSki tumor-bearing mice, 0.37 MBq i.v., gamma counting, mean, n = 4, read-out: Uptake in Muscle): 1.23 %ID/g | tissue uptake at 1 h ([2]; muscle, CaSki tumor-bearing mice, non-PEGylated A20FMDV2 100 μg injected 10 min before radiotracer, read-out: Uptake in Muscle, 1 h Block): 0.43 %ID/g | tissue uptake at 1 h ([2]; spleen, CaSki tumor-bearing mice, 0.37 MBq i.v., gamma counting, mean, n = 4, read-out: Uptake in Spleen): 0.63 %ID/g | tissue uptake at 1 h ([2]; spleen, CaSki tumor-bearing mice, non-PEGylated A20FMDV2 100 μg injected 10 min before radiotracer, read-out: Uptake in Spleen, 1 h Block): 0.54 %ID/g | tissue uptake at 1 h ([2]; tumor (CaSki xenograft), 0.37 MBq i.v., gamma counting, mean, n = 4, read-out: Tumor Uptake): 1.63 ± 0.53 %ID/g | tissue uptake at 1 h ([2]; tumor (CaSki xenograft), non-PEGylated A20FMDV2 100 μg injected 10 min before radiotracer, read-out: Tumor uptake, 1 h Block): 0.67 ± 0.26 %ID/g | SUV at 1 h ([3]; PET at 1 h): 0.46 ± 0.04 SUV | SUV at 4 h ([3]; PET at 4 h): 0.54 ± 0.05 SUV | SUV at 24 h ([3]; PET at 24 h): 0.74 ± 0.21 SUV
